This is an account of results in paper PMC3481350.

The target of this assay is Deg2 protease (Arabidopsis thaliana), mature Deg2 (Arabidopsis thaliana). The assay is described as follows: SEC + other: dynamic light scattering.

A word on the stoichiometry N: it is the number of molecules, sites or subunits per partner or assembly. As to “Deg2 protease (Arabidopsis thaliana), mature Deg2 (enzyme)”, the stoichiometry N turned out to be 6.
